This note sets out measurements from patent US20050112555A1, “Cytidine deaminase activators, deoxycytidine deaminase activators, Vif antagonists, and methods of screening for molecules thereof” (priority 2003, published 2005).

Where two headings read alike, the source gives them in different places. Where only a bound is given, the exact number is not on record here.

Test [1] deals with reporter apoB mRNA site C6666. Put plainly: Poisoned primer extension editing assay of reporter apoB mRNA in yeast.
The test system of another test is HIV-1 GP-RNA. Briefly: UV crosslinking RNA binding assay, HIV-1 GP-RNA. Particulars: recombinant CEM15 1, 2 and 4 μg; 20 fmol radiolabeled GP-RNA.
In a further test the test system is vif− HIV-1 particles. The class given is cell-based.
Test [2] concerns HIV-1 Gag-Pol mRNA (GP-RNA region). Briefly: Northern blot of viral Gag-Pol poly A+ RNA abundance in 293T cells. The format is cell-based. Particulars: ΔVif vs Vif+ provirus, 293T-CEM15.
A further test has as its system apoB RNA. Put plainly: UV crosslinking RNA binding assay, apoB RNA. Particulars: recombinant CEM15; 20 fmol radiolabeled apoB RNA.
Test [3] relates to pseudotyped HIV-1 viral particles. The class given is cell-based. The following applies: vs control 293T cells with pIRES-P vector.
The test system of a further test is HIV-1 p24 and RT protein. Briefly: Western blot of HIV-1 proteins in proviral-transfected 293T cell lysates. The format is cell-based. Particulars: ΔVif proviral DNA, 72 h, vs control pIRES-P cells.
[4] abbreviates: overexpressed in yeast, late log phase growth with galactose feeding.

B1: CDA from E. coli: dimeric cytidine deaminase from E. coli, equivalent to PDB entry 1AF2 (protein, UniProt P0ABF6 1-294, looked up)
Cytidine deaminase: MHPRFQTAFAQLADNLQSALEPILADKYFPALLTGEQVSSLKSATGLDEDALAFALLPLAAACARTPLSNFNVGAIARGVSGTWYFGANMEFIGATMQQTVHAEQSAISHAWLSGEKALAAITVNYTPCGHCRQFMNELNSGLDLRIHLPGREAHALRDYLPDAFGPKDLEIKTLLMDEQDHGYALTGDALSQAAIAAANRSHMPYSKSPSGVALECKDGRIFSGSYAENAAFNPTLPPLQGALILLNLKGYDYPDIQRAVLAEKADAPLIQWDATSATLKALGCHSIDRVLLA
On to B1, for which the “editing activity on reporter apoB mRNA (in words)” value in test [1] (expressed in yeast) is reported as “incapable of editing on the reporter substrate”.

B2: CEM15: human cytidine deaminase (APOBEC-3G) that reduces retroviral infectivity; HA-tagged, stably expressed in 293T cells or recombinant (protein)
chain: MKPHFRNTVERMYRDTFSYNFYNRPILSRRNTVWLCYEVKTKGPSRPPLDAKIFRGQVYSELKYHPEMRFFHWFSKWRKLHRDQEYEVTWYISWSPCTKCTRDMATFLAEDPKVTLTIFVARLYYFWDPDYQEALRSLCQKRDGPRATMKIMNYDEFQHCWSKFVYSQRELFEPWNNLPKYYILLHIMLGEILRHSMDPPTFTFNFNNEPWVRGRHETYLCYEVERMHNDTWVLLNQRRGFLCNQAPHKHGFLEGRHAELCFLDVIPFWKLDLDQDYRVTCFTSWSPCFSCAQEMAKFISKNKHVSLCIFTARIYDDQGRCQEGLRTLAEAGAKISIMTYSEFKHCWDTFVDHQGCPFQPWDGLDEHSQDLSGRLRAILQNQEN
modifications: left off: small tags and cut ends
notes: human cytidine deaminase (APOBEC-3G) that reduces retroviral infectivity; HA-tagged, stably expressed in 293T cells or recombinant
As to B2, the “RNA binding (UV crosslinking)” value in the test on HIV-1 GP-RNA is recorded as “bound to radiolabeled HIV-1 GP-RNA in concentration dependent manner”. Also, the “GFP expression from vif−, CEM15+ particles” value with vif− HIV-1 particles is on record as “indistinguishable from background fluorescence in control cells”. Besides, in the test with vif− HIV-1 particles, the “decrease in Vif− viral infectivity” value is listed as ≥ 100 fold. Besides, the “depletion of viral RNA levels” value in test [2] (24 h post-transfection) is given as 2 fold; in test [2] (48 h post-transfection), 9 fold; in test [2] (72 h post-transfection), 56 fold. The “RNA binding (UV crosslinking), yield of complexes compared with GP-RNA” value in the test on apoB RNA is reported as “the yield of complexes was similar”. For the same molecule, the “reduction of viral particle production” value in test [3] (Vif+ provirus) is reported as 5 fold; in test [3] (ΔVif provirus (absence of Vif)), 100 fold. Further, in the test on HIV-1 p24 and RT protein, the “HIV-1 p24 and RT protein abundance” value is “marked reduction”.

B3: Cdd1: tetrameric cytidine deaminase from S. cerevisiae with RNA editing activity (protein, UniProt Q06549 1-142, looked up)
Cytidine deaminase: MKVGGIEDRQLEALKRAALKACELSYSPYSHFRVGCSILTNNDVIFTGANVENASYSNCICAERSAMIQVLMAGHRSGWKCMVICGDSEDQCVSPCGVCRQFINEFVVKDFPIVMLNSTGSRSKVMTMGELLPMAFGPSHLN
As for B3, in test [1] (setting [4]), the “C to U editing of reporter apoB mRNA at site C6666” value is 6.7% and the “editing level relative to negative control (empty vector)” value is listed as ~10 ×.
